Reference: patent US20120053225

What was measured:
[1] = biological target: HA-tagged AKT Y176F mutant, P31749
[2] = biological target: HA-tagged AKT (wild type), P31749
[3] = biological target: HA-tagged AKT deletion construct lacking the PH domain, P31749

B1: endogenous Ack1 of mouse embryo fibroblasts (protein)
chain: MQPEEGTGWLLELLSEVQLQQYFLRLRDDLNITRLSHFEYVKNEDLEKIGMGRPGQRRLWEAVKRRKAMCKRKSWMSKVFSGKRLEAEFPSQHSQSTFRKPSPTPGSLPGEGTLQSLTCLIGEKDLRLLEKLGDGSFGVVRRGEWDAPAGKTVSVAVKCLKPDVLSQPEAMDDFIREVNAMHSLDHRNLIRLYGVVLTLPMKMVTELAPLGSLLDRLRKHQGHFLLGTLSRYAVQVAEGMAYLESKRFIHRDLAARNLLLATRDLVKIGDFGLMRALPQNDDHYVMQEHRKVPFAWCAPESLKTRTFSHASDTWMFGVTLWEMFTYGQEPWIGLNGSQILHKIDKEGERLPRPEDCPQDIYNVMVQCWAHKPEDRPTFVALRDFLLEAQPTDMRALQDFEEPDKLHIQMNDVITVIEGRAENYWWRGQNTRTLCVGPFPRNVVTSVAGLSAQDISQPLQNSFIHTGHGDSDPRHCWGFPDRIDELYLGNPMDPPDLLSVELSTSRPTQHLGRVKREPPPRPPQPAIFTQKTTYDPVSEDPDPLSSDFKRLGLRKPALPRGLWLAKPSARVPGTKADRSSGGEVTLIDFGEEPVVPTPRPCAPSLAQLAMDACSLLDKTPPQSPTRALPRPLHPTPVVDWDARPLPPPPAYDDVAQDEDDFEVCSINSTLVGAGLPAGPSQGETNYAFVPEQAQMPPALEDNLFLPPQGGGKPPSSVQTAEIFQALQQECMRQLQVPTGQLTPSPTPGGDDKPQVPPRVPIPPRPTRPRVELSPAPSGEEETSRWPGPASPPRVPPREPLSPQGSRTPSPLVPPGSSPLPHRLSSSPGKTMPTTQSFASDPKYATPQVIQAPGPRAGPCILPIVRDGRKVSSTHYYLLPERPPYLERYQRFLREAQSPEEPAALPVPPLLPPPSTPAPAAPTATVRPMPQAAPDPKANFSTNNSNPGARPPSLRAAARLPQRGCPGDGQEAARPADKVQMLQAMVHGVTTEECQAALQSHSWSVQRAAQYLKVEQLFGLGLRPRVECHKVLEMFDWNLEQAGCHLLGSCGPAHHKR
AKT Tyr/Ser-phosphorylations (IP and immunoblot) [1]: decreased AKT Tyr/Ser-phosphorylations

B2: purified tagged Ack1 expressed in HEK293T cells (protein)
chain: MQPEEGTGWLLELLSEVQLQQYFLRLRDDLNVTRLSHFEYVKNEDLEKIGMGRPGQRRLWEAVKRRKALCKRKSWMSKVFSGKRLEAEFPPHHSQSTFRKTSPAPGGPAGEGPLQSLTCLIGEKDLRLLEKLGDGSFGVVRRGEWDAPSGKTVSVAVKCLKPDVLSQPEAMDDFIREVNAMHSLDHRNLIRLYGVVLTPPMKMVTELAPLGSLLDRLRKHQGHFLLGTLSRYAVQVAEGMGYLESKRFIHRDLAARNLLLATRDLVKIGDFGLMRALPQNDDHYVMQEHRKVPFAWCAPESLKTRTFSHASDTWMFGVTLWEMFTYGQEPWIGLNGSQILHKIDKEGERLPRPEDCPQDIYNVMVQCWAHKPEDRPTFVALRDFLLEAQPTDMRALQDFEEPDKLHIQMNDVITVIEGRAENYWWRGQNTRTLCVGPFPRNVVTSVAGLSAQDISQPLQNSFIHTGHGDSDPRHCWGFPDRIDELYLGNPMDPPDLLSVELSTSRPPQHLGGVKKPTYDPVSEDQDPLSSDFKRLGLRKPGLPRGLWLAKPSARVPGTKASRGSGAEVTLIDFGEEPVVPALRPCAPSLAQLAMDACSLLDETPPQSPTRALPRPLHPTPVVDWDARPLPPPPAYDDVAQDEDDFEICSINSTLVGAGVPAGPSQGQTNYAFVPEQARPPPPLEDNLFLPPQGGGKPPSSAQTAEIFQALQQECMRQLQAPAGSPAPSPSPGGDDKPQVPPRVPIPPRPTRPHVQLSPAPPGEEETSQWPGPASPPRVPPREPLSPQGSRTPSPLVPPGSSPLPPRLSSSPGKTMPTTQSFASDPKYATPQVIQAPGPRAGPCILPIVRDGKKVSSTHYYLLPERPSYLERYQRFLREAQSPEEPTPLPVPLLLPPPSTPAPAAPTATVRPMPQAALDPKANFSTNNSNPGARPPPPRATARLPQRGCPGDGPEAGRPADKIQMAMVHGVTTEECQAALQCHGWSVQRAAQYLKVEQLFGLGLRPRGECHKVLEMFDWNLEQAGCHLLGSWGPAHHKR
AKT Tyr176-phosphorylation (in vitro phosphorylation of purified AKT by Ack1, immunoblot) [2]: purified Ack1 interacted directly with AKT resulting in AKT Tyr176-phosphorylation

B3: activated Ack1 (caAck, L487F mutant) (protein)
chain: MQPEEGTGWLLELLSEVQLQQYFLRLRDDLNVTRLSHFEYVKNEDLEKIGMGRPGQRRLWEAVKRRKALCKRKSWMSKVFSGKRLEAEFPPHHSQSTFRKTSPAPGGPAGEGPLQSLTCLIGEKDLRLLEKLGDGSFGVVRRGEWDAPSGKTVSVAVKCLKPDVLSQPEAMDDFIREVNAMHSLDHRNLIRLYGVVLTPPMKMVTELAPLGSLLDRLRKHQGHFLLGTLSRYAVQVAEGMGYLESKRFIHRDLAARNLLLATRDLVKIGDFGLMRALPQNDDHYVMQEHRKVPFAWCAPESLKTRTFSHASDTWMFGVTLWEMFTYGQEPWIGLNGSQILHKIDKEGERLPRPEDCPQDIYNVMVQCWAHKPEDRPTFVALRDFLLEAQPTDMRALQDFEEPDKLHIQMNDVITVIEGRAENYWWRGQNTRTLCVGPFPRNVVTSVAGLSAQDISQPLQNSFIHTGHGDSDPRHCWGFPDRIDELYFGNPMDPPDLLSVELSTSRPPQHLGGVKKPTYDPVSEDQDPLSSDFKRLGLRKPGLPRGLWLAKPSARVPGTKASRGSGAEVTLIDFGEEPVVPALRPCAPSLAQLAMDACSLLDETPPQSPTRALPRPLHPTPVVDWDARPLPPPPAYDDVAQDEDDFEICSINSTLVGAGVPAGPSQGQTNYAFVPEQARPPPPLEDNLFLPPQGGGKPPSSAQTAEIFQALQQECMRQLQAPAGSPAPSPSPGGDDKPQVPPRVPIPPRPTRPHVQLSPAPPGEEETSQWPGPASPPRVPPREPLSPQ
Tyr-phosphorylation of AKT deletion constructs (IP with HA antibodies, immunoblot with pTyr antibodies) [3]: AKT deletion construct lacking the PH domain (ΔPH-AKT) exhibited significant decrease in Tyr-phosphorylation
